From publication PMC6274722 come the findings set out here.

In the assay the target is amyloid β 1-42 peptide (Aβ1-42) (UniProt P05067).

deuterohemin = iron-porphyrin joined to the peptide N-terminus

B1: Deuterohemin-AlaHisThrValGluLys (DhHP-6) (peptide)
peptide: deuterohemin-AHTVEK-NH2
modifications: also: His2 imidazole is the fifth ligand of the deuterohemin iron
In turn, B1 had a particle size (DLS, five days) and morphology (TEM, three days) of Aβ1-42 incubated with DhHP-6 at 10 μM:10 μM, 37 °C of 396 nm.
